B1: mRNA-splicing (parent)
chain: AGUUGCUGCUGGGAGCUCCAGCACAGUGAAAUGGACAGAAGGGCAGAGCAA

Variants of: B1
Test: exon inclusion enrichment index; higher = more inclusion; WT1 exon 5 minigene, HEK293

Variant	exon inclusion enrichment index
AGUUGCUGCUGGGAGCCACAGCACAGUGAAAUGGACAGAAGGGCAGAGCAA	1.29
AGUUGCUGCUGGGAGCCGCAGCACAGUGAAAUGGACAGAAGGGCAGAGCAA	0.369
AGUUGCUGCUGGGAGCCUCAGCACAGUGAAAUGGACAGAAGGGCAGAGCAA	1.34
AGUUGCUGCUGGGAGCUCCAGCGUAGUGAAAUGGACAGAAGGGCAGAGCAA	0.167
AGUUGCUGCUGGGAGCUCCAGCGGAGUGAAAUGGACAGAAGGGCAGAGCAA	1.64
AGUUGCUGCUGGGAGCUCCAGCGAAGUGAAAUGGACAGAAGGGCAGAGCAA	1.56
AGUUGCUGCUGGGAGCUAUAGCACAGUGAAAUGGACAGAAGGGCAGAGCAA	0.121
AGUUGCUGCUGGGAGCUAGAGCACAGUGAAAUGGACAGAAGGGCAGAGCAA	0.352
AGUUGCUGCUGGGAGCUAAAGCACAGUGAAAUGGACAGAAGGGCAGAGCAA	0.547
AGUUGCUGCUGGGAGCUCCAGCACCCUGAAAUGGACAGAAGGGCAGAGCAA	0.435
AGUUGCUGCUGGGAGCUCCAGCACCAUGAAAUGGACAGAAGGGCAGAGCAA	0.448
AGUUGCUGCUGGGAGCUCCAGCACCUUGAAAUGGACAGAAGGGCAGAGCAA	0.368
AGUUGCUGCUGGGAGCUCCAGCAACGUGAAAUGGACAGAAGGGCAGAGCAA	0.728
AGUUGCUGCUGGGAGCUCCAGCAAUGUGAAAUGGACAGAAGGGCAGAGCAA	0.16
AGUUGCUGCUGGGAGCUCCAGCAAGGUGAAAUGGACAGAAGGGCAGAGCAA	0.315
AGUUGCUGCUGGGAGCUCCAGCACGGUGAAAUGGACAGAAGGGCAGAGCAA	0.595
AGUUGCUGCUGGGAGCUCCAGCACCGUGAAAUGGACAGAAGGGCAGAGCAA	1.1
AGUUGCUGCUGGGAGCUCCAAUACAGUGAAAUGGACAGAAGGGCAGAGCAA	1.19
AGUUGCUGCUGGGAGCUCCAAGACAGUGAAAUGGACAGAAGGGCAGAGCAA	2.36
AGUUGCUGCUGGGAGCUCCAAAACAGUGAAAUGGACAGAAGGGCAGAGCAA	1.17
AGUUGCUGCUGGGAGCUCCAACACAGUGAAAUGGACAGAAGGGCAGAGCAA	1.75
AGUUGCUGCUGGGAGCUCCACCACAGUGAAAUGGACAGAAGGGCAGAGCAA	2.64
AGUUGCUGCUGGGAGCUCCAUCACAGUGAAAUGGACAGAAGGGCAGAGCAA	1.52
AGUUGCUGCUGGGAGCUCUAGCACAGUGAAAUGGACAGAAGGGCAGAGCAA	0.199
AGUUGCUGCUGGGAGCUCGAGCACAGUGAAAUGGACAGAAGGGCAGAGCAA	2.42
AGUUGCUGCUGGGAGCUCAAGCACAGUGAAAUGGACAGAAGGGCAGAGCAA	1.49

Variant	exon inclusion enrichment index
AGUUGCUGCUGGGAGCUCCAGGCCAGUGAAAUGGACAGAAGGGCAGAGCAA	1.36
AGUUGCUGCUGGGAGCUCCAGGUCAGUGAAAUGGACAGAAGGGCAGAGCAA	0.496
AGUUGCUGCUGGGAGCUCCAGGGCAGUGAAAUGGACAGAAGGGCAGAGCAA	1.07
AGUUGCUGCUGGGAGCUCCAGCAUGGUGAAAUGGACAGAAGGGCAGAGCAA	0.487
AGUUGCUGCUGGGAGCUCCAGCAUUGUGAAAUGGACAGAAGGGCAGAGCAA	0.208
AGUUGCUGCUGGGAGCUCCAGCAUCGUGAAAUGGACAGAAGGGCAGAGCAA	1.23
AGUUGCUGCUGGGAGCUCUCGCACAGUGAAAUGGACAGAAGGGCAGAGCAA	1.96
AGUUGCUGCUGGGAGCUCUGGCACAGUGAAAUGGACAGAAGGGCAGAGCAA	0.684
AGUUGCUGCUGGGAGCUCUUGCACAGUGAAAUGGACAGAAGGGCAGAGCAA	1.01
AGUUGCUGCUGGGAGCAGCAGCACAGUGAAAUGGACAGAAGGGCAGAGCAA	0.00663
AGUUGCUGCUGGGAGCAACAGCACAGUGAAAUGGACAGAAGGGCAGAGCAA	0.314
AGUUGCUGCUGGGAGCAUCAGCACAGUGAAAUGGACAGAAGGGCAGAGCAA	1.09
AGUUGCUGCUGGGAGCUUAAGCACAGUGAAAUGGACAGAAGGGCAGAGCAA	0.302
AGUUGCUGCUGGGAGCUUGAGCACAGUGAAAUGGACAGAAGGGCAGAGCAA	0.995
AGUUGCUGCUGGGAGCUUUAGCACAGUGAAAUGGACAGAAGGGCAGAGCAA	0.0838
AGUUGCUGCUGGGAGCUCAUGCACAGUGAAAUGGACAGAAGGGCAGAGCAA	1.14
AGUUGCUGCUGGGAGCUCAGGCACAGUGAAAUGGACAGAAGGGCAGAGCAA	0.356
AGUUGCUGCUGGGAGCUCACGCACAGUGAAAUGGACAGAAGGGCAGAGCAA	1.81
AGUUGCUGCUGGGAGCUCCAGCACGAUGAAAUGGACAGAAGGGCAGAGCAA	0.573
AGUUGCUGCUGGGAGCUCCAUUACAGUGAAAUGGACAGAAGGGCAGAGCAA	0.89
AGUUGCUGCUGGGAGCUCCAUAACAGUGAAAUGGACAGAAGGGCAGAGCAA	1.05
AGUUGCUGCUGGGAGCUCCAUGACAGUGAAAUGGACAGAAGGGCAGAGCAA	2.39
AGUUGCUGCUGGGAGCUCCAGCAGGGUGAAAUGGACAGAAGGGCAGAGCAA	0.0325
AGUUGCUGCUGGGAGCUCCAGCAGUGUGAAAUGGACAGAAGGGCAGAGCAA	0.0194
AGUUGCUGCUGGGAGCUCCAGCAGCGUGAAAUGGACAGAAGGGCAGAGCAA	0.0375
AGUUGCUGCUGGGAGCUCCAGUCCAGUGAAAUGGACAGAAGGGCAGAGCAA	1.24

Variant	exon inclusion enrichment index
AGUUGCUGCUGGGAGCUCCAGUGCAGUGAAAUGGACAGAAGGGCAGAGCAA	1.77
AGUUGCUGCUGGGAGCUCCAGUUCAGUGAAAUGGACAGAAGGGCAGAGCAA	1.19
AGUUGCUGCUGGGAGCUCCAGUACAGUGAAAUGGACAGAAGGGCAGAGCAA	1.27
AGUUGCUGCUGGGAGCUCCAGAACAGUGAAAUGGACAGAAGGGCAGAGCAA	2.09
AGUUGCUGCUGGGAGCUCCAGGACAGUGAAAUGGACAGAAGGGCAGAGCAA	2.76
AGUUGCUGCUGGGAGCUCCAGAGCAGUGAAAUGGACAGAAGGGCAGAGCAA	1.76
AGUUGCUGCUGGGAGCUCCAGACCAGUGAAAUGGACAGAAGGGCAGAGCAA	2.97
AGUUGCUGCUGGGAGCUCCAGAUCAGUGAAAUGGACAGAAGGGCAGAGCAA	1.56
AGUUGCUGCUGGGAGCUCCUCCACAGUGAAAUGGACAGAAGGGCAGAGCAA	2.37
AGUUGCUGCUGGGAGCUCCUACACAGUGAAAUGGACAGAAGGGCAGAGCAA	1.45
AGUUGCUGCUGGGAGCUCCUUCACAGUGAAAUGGACAGAAGGGCAGAGCAA	1.91
AGUUGCUGCUGGGAGCUCCGUCACAGUGAAAUGGACAGAAGGGCAGAGCAA	2.37
AGUUGCUGCUGGGAGCUCCGCCACAGUGAAAUGGACAGAAGGGCAGAGCAA	2.64
AGUUGCUGCUGGGAGCUCCGACACAGUGAAAUGGACAGAAGGGCAGAGCAA	2.89
AGUUGCUGCUGGGAGCUCCAGCUGAGUGAAAUGGACAGAAGGGCAGAGCAA	0.96
AGUUGCUGCUGGGAGCUCCAGCUAAGUGAAAUGGACAGAAGGGCAGAGCAA	0.217
AGUUGCUGCUGGGAGCUCCAGCUUAGUGAAAUGGACAGAAGGGCAGAGCAA	0.078
AGUUGCUGCUGGGAGCGUCAGCACAGUGAAAUGGACAGAAGGGCAGAGCAA	1.5
AGUUGCUGCUGGGAGCGGCAGCACAGUGAAAUGGACAGAAGGGCAGAGCAA	0.0429
AGUUGCUGCUGGGAGCGACAGCACAGUGAAAUGGACAGAAGGGCAGAGCAA	1.73
AGUUGCUGCUGGGAGCUCCCUCACAGUGAAAUGGACAGAAGGGCAGAGCAA	1.49
AGUUGCUGCUGGGAGCUCCCCCACAGUGAAAUGGACAGAAGGGCAGAGCAA	0.634
AGUUGCUGCUGGGAGCUCCCACACAGUGAAAUGGACAGAAGGGCAGAGCAA	1.19
AGUUGCUGCUGGGAGCUCCAGCCUAGUGAAAUGGACAGAAGGGCAGAGCAA	0.256
AGUUGCUGCUGGGAGCUCCAGCCAAGUGAAAUGGACAGAAGGGCAGAGCAA	0.968
AGUUGCUGCUGGGAGCUCCAGCCGAGUGAAAUGGACAGAAGGGCAGAGCAA	2.29

Variant	exon inclusion enrichment index
AGUUGCUGCUGGGAGCUGUAGCACAGUGAAAUGGACAGAAGGGCAGAGCAA	0.777
AGUUGCUGCUGGGAGCUGGAGCACAGUGAAAUGGACAGAAGGGCAGAGCAA	3.04
AGUUGCUGCUGGGAGCUGAAGCACAGUGAAAUGGACAGAAGGGCAGAGCAA	2.92
AGUUGCUGCUGGGAGCUUCAGCACAGUGAAAUGGACAGAAGGGCAGAGCAA	1.27
AGUUGCUGCUGGGAGCUGCAGCACAGUGAAAUGGACAGAAGGGCAGAGCAA	0.287
AGUUGCUGCUGGGAGCUACAGCACAGUGAAAUGGACAGAAGGGCAGAGCAA	1.5
AGUUGCUGCUGGGAGCUCCAGCUCAGUGAAAUGGACAGAAGGGCAGAGCAA	0.475
AGUUGCUGCUGGGAGCUCCAGCGCAGUGAAAUGGACAGAAGGGCAGAGCAA	0.414
AGUUGCUGCUGGGAGCUCCAGCCCAGUGAAAUGGACAGAAGGGCAGAGCAA	0.646
AGUUGCUGCUGGGAGCUCCCGCACAGUGAAAUGGACAGAAGGGCAGAGCAA	2.03
AGUUGCUGCUGGGAGCUCCUGCACAGUGAAAUGGACAGAAGGGCAGAGCAA	2.62
AGUUGCUGCUGGGAGCUCCGGCACAGUGAAAUGGACAGAAGGGCAGAGCAA	1.58
AGUUGCUGCUGGGAGCUCGCGCACAGUGAAAUGGACAGAAGGGCAGAGCAA	2.84
AGUUGCUGCUGGGAGCUCGGGCACAGUGAAAUGGACAGAAGGGCAGAGCAA	1.23
AGUUGCUGCUGGGAGCUCGUGCACAGUGAAAUGGACAGAAGGGCAGAGCAA	2.21
AGUUGCUGCUGGGAGCUCCAGCAAAGUGAAAUGGACAGAAGGGCAGAGCAA	0.223
AGUUGCUGCUGGGAGCUCCAGCAUAGUGAAAUGGACAGAAGGGCAGAGCAA	0.0472
AGUUGCUGCUGGGAGCUCCAGCAGAGUGAAAUGGACAGAAGGGCAGAGCAA	0.0337
AGUUGCUGCUGGGAGCUCCACAACAGUGAAAUGGACAGAAGGGCAGAGCAA	2.18
AGUUGCUGCUGGGAGCUCCACUACAGUGAAAUGGACAGAAGGGCAGAGCAA	2.41
AGUUGCUGCUGGGAGCUCCACGACAGUGAAAUGGACAGAAGGGCAGAGCAA	3.35
AGUUGCUGCUGGGAGCCCCAGCACAGUGAAAUGGACAGAAGGGCAGAGCAA	0.0839
AGUUGCUGCUGGGAGCGCCAGCACAGUGAAAUGGACAGAAGGGCAGAGCAA	0.247
AGUUGCUGCUGGGAGCACCAGCACAGUGAAAUGGACAGAAGGGCAGAGCAA	0.131

Reference: the RNAGym collection of RNA variant scans (doi:10.1101/gr.219683.116)
